Results on 27 molecules are retold here after US20250361305A1 (ORIONIS BIOSCIENCES, published 2025).

Assay [1] concerns the target T1, PD-1 antigen (ELISA of Example 2) (human, UniProt Q15116 25-167, limits assumed). Nature of the assay: ELISA, signal on PD-1 antigen. Further: test concentration or dose not given here.
The target of assay [2] is T1, PD-1 antigen (ELISA of Example 2). Nature of the assay: ELISA, signal on PD-1 antigen over control.
In assay [3] the target is T2, PD-L1 antigen (ELISA of Example 2) (human, UniProt Q9NZQ7 19-239, limits assumed). Put plainly: ELISA, signal on PD-L1 antigen.
T2 sequence (Q9NZQ7 19-239 limits assumed): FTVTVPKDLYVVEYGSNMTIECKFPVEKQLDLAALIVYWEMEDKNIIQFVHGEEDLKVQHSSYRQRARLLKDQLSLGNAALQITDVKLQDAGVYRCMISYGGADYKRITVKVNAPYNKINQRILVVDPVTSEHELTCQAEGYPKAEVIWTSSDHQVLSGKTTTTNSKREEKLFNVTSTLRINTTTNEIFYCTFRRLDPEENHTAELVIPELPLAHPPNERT
The target in assay [4] is T2, PD-L1 antigen (ELISA of Example 2). Nature of the assay: ELISA, signal on PD-L1 antigen over control.

T1 sequence (Q15116 25-167 limits assumed): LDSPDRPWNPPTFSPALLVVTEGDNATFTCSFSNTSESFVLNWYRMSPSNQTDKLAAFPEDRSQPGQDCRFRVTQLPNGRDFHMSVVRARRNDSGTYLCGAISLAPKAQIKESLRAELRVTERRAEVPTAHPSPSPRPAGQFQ

B1: 2PD-12 (VHH)
VHH: QVQLQESGGGLVQAGGSLRLSCAVSGFILDYYGIGWFRQAPGKEREAVSCISSSDGSTYYADSVKGRFTISRDNALNTLYLQMNSLKPEDTAVYHCATATLCDGGIWGYWGQGTQVTVSS
notes: PD-1 VHH
B1: the “ELISA A” value in assay [1] worked out at 3.81. In assay [2], this molecule came in with an A/control of 21.5.

B2: 3PD55 (VHH)
VHH: QVQLQESGGGLAQAGGSLRLSCEGSGLSLDYDGVGWFRQAPGKEREAVSCISSSDGSTYYADSVKGRFTISRGNALNTLYLQMNSLKPEDTAVYYCATATLCDGGIWGYWGQGTQVTVSS
notes: PD-1 VHH
Consider B2, for which the “ELISA A” value in assay [1] came out at 3.58. The A/control in assay [2] worked out at 40.4.

B3: 3PD82 (VHH)
VHH: QVQLQESGGGSVQPGGSLRLSCAVSGFILDYYGIGWFRQAPGKEREAVSCISSSDGSTYYADSVKGRFTISRDNALNTLYLQMNSLKPEDTAVYYCATATLCDGGIWGYWGQGTQVTVSS
notes: PD-1 VHH
Consider B3, for which the “ELISA A” value in assay [1] is 4. The molecule further returned an A/control in assay [2] of 45.1.

B4: 2PD-16 (VHH)
VHH: QVQLQESGGGLVQAGGSLRLSCAASGGFNRVSYMGWYRQAPGTKRELVASVTSGGEITIADSVKGRFTVSRDNSKNTLYLQMNGLKPEDGATYWCNADIWVSDARMYNYWGQGTQVTVSS
notes: PD-1 VHH
Regarding B4, in assay [1], the “ELISA A” value was determined as 1.83. Moreover, the A/control in assay [2] was 3.84.

B5: 2PD71 (VHH)
VHH: QVQLQESGGGLVQTGESLRLSCAASGGFNRVSYMGWYRQAPGSKRELVASVTSGGEITVADSVKGRFTVSRDNNKNTLYLQMNGLKPEDGATYWCNADIWVSDARMYNYWGQGTQVTVSS
notes: PD-1 VHH
As to B5, the “ELISA A” value in assay [1] worked out at 2.51. For the same molecule, the A/control in assay [2] is 3.59.

B6: 2LIG86 (VHH)
VHH: QVQLQESGGGLVQPGGSLRLSCAASGFTFDYYAIGWFRQAPGKEREEVSCISGSDSSTYYADSVKGRFTIVRDNAQNTVYLQMNSLKPEDTAIYYCAVTGWRTCRGLNEYDYWGQGTQVTVSS
notes: PD-L1 VHH
Consider B6, for which, in assay [3], the ELISA was 3.8. Further, the A/control in assay [4] came to 33.6.

B7: 3LIG9 (VHH)
VHH: QVQLQESGGGLVQPGGSLRLSCAASGFTFSSYGMSWVRQTPGKGPEWVSAIDSGGGSTSYADSVKGRFTISRDNAKNTLYLQMNSLKPEDTAVYYCAQGYYCSGYGCSDYWGQGTQVTVSS
notes: PD-L1 VHH
For the molecule B7, the ELISA in assay [3] amounted to 3.66. The molecule also registered an A/control in assay [4] of 37.7.

B8: 3LIG29 (VHH)
VHH: QVQLQESGGGLVQAGGSMRLSCAASGFTFSSYGMSWVRQTPGKGPEWVSAIDSGGGSTSYADSVKGRFTISRDNAKNTLYLQMNSLKPEDTAVYYCAQGYYCSGYGCSDYWGQGTQVTVSS
notes: PD-L1 VHH
In turn, B8 had an ELISA in assay [3] of 3.96. The molecule further yielded an A/control in assay [4] of 40.9.

B9: 2PD8 (VHH)
VHH: QVQLQESGGGSVQAGDSLRLSCTASGRTFSSLGMGWFRQAPGKEREFVSAIAWNGASTYYTESVKGRFTISRDDAKNTVYLQMNSLKPTDTAVYFCAASGLGSVVVTANEYDYWGQGTQVTVSS
notes: PD-1 VHH
Regarding B9, the “ELISA A” value in assay [1] amounted to 0.763. Moreover, in assay [2], the A/control is 3.03.

B10: 2PD27 (VHH)
VHH: QVQLQESGGGSVQPGKSLRLSCAASGRTFSSLGMGWFRQAPGKEREFVSAIAWNGASTYYTESVKGRFTISRDDAKNTVYLQMNSLKPTDTAVYFCAASGLGSVVVTANEYDYWGQGTQVTVSS
notes: PD-1 VHH
Turning to B10, the “ELISA A” value in assay [1] was 1.14. This molecule registered an A/control in assay [2] of 3.45.

B11: 2LIG176 (VHH)
VHH: QVQLQESGGGLVQAGGSLRLSCAASESIFSIEAMGWYRQAPGKQRELVAAIFGGGFTNYADSVKGRFTISRDNANRTVYLQMNSLKPEDTAVYYCNADLVSGSSRLYDYWGQGTQVTVSS
notes: PD-L1 VHH
As to B11, in assay [3], the ELISA was found to be 0.415. For the same molecule, the A/control in assay [4] worked out at 4.22.

B12: 2PD82 (VHH)
VHH: QVQLQESGGGLVQPGGSLRLSCTTSGFAFGSYDMGWVRQAPGKGPEWVSGINSGGRITDYADSVTGRFTISRDNAKNTLYLQMNSLKPEDTAVYYCAQGDRSSWHYYGMDYWGKGTQVTVSS
notes: PD-1 VHH
In the case of B12, the “ELISA A” value in assay [1] was 2.97. This molecule returned an A/control in assay [2] of 4.38.

B13: 2LIG85 (VHH)
VHH: QVQLQESGGGLVQPGGSLRLSCAASGFTFTAYAMSWFRQAPGKEREEVSCINSSDGSTYYADSVKGRFTISRDNAKNTVYLQMNSLKPEDTAVYHCATDGWRDCTWSNEYAYWGQGTQVTVSS
notes: PD-L1 VHH
For the molecule B13, the ELISA in assay [3] stood at 2.67. In assay [4], this molecule had an A/control of 22.6.

B14: 2PD23 (VHH)
VHH: QVQLQESGGGLVQPGGSLRLSCAASGFSMDYYAIAWFRQAPGKEREEISCITGSDFMVDTYYVASVKGRFTISRDNAENTAYLQMNNLKPEDTGVYFCAVRSTANTLCPSHYSVMDYWGKGTQVTVSS
notes: PD-1 VHH
Turning to B14, the “ELISA A” value in assay [1] is 0.94. In addition, in assay [2], the A/control was found to be 4.56.

B15: 2PD-106 (VHH)
VHH: QVQLQESGGGLVQPGGSLRLSCSASGFSMDYYAIAWFRQAPGKEREEISCITGSDFMVDTYYVASVKGRFTISRDNAKNTAHLQMNSLKPEDTGVYFCAVRSTANTLCPSHYSVMDYWGKGTQVTVSS
notes: PD-1 VHH
In the case of B15, in assay [1], the “ELISA A” value worked out at 1.46. The molecule further showed an A/control in assay [2] of 6.9.

B16: 2PD26 (VHH)
VHH: QVQLQESGGGLVQAGGSLRLSCAASGFSMDYYAIAWFRQAPGKEREEISCITGSDFMVDTYYVASVKGRFTISRDNAENTAYLQMNNLKPEDTGVYFCAVRSTANTLCPSHYSVMDYWGKGTQVTVSS
notes: PD-1 VHH
Regarding B16, the “ELISA A” value in assay [1] worked out at 0.718. In addition, the A/control in assay [2] came to 4.2.

B17: 2PD90 (VHH)
VHH: QVQLQESGGGLVQPGGSLRLSCSASGFSVDYYAIAWFRQAPGKEREEISCITGSDFMVDTYYVASVKGRFTISRDNAKNTAYLQMNSLKPEDTGVYFCAVRSTANTLCPSHYSIMDYWGKGTQVTVSS
notes: PD-1 VHH
Consider B17, for which, in assay [1], the “ELISA A” value was determined as 1.34. Further, the A/control in assay [2] was determined as 5.23.

B18: 2LIG30 (VHH)
VHH: QVQLQESGGGLVQPGGSLRLSCAASGKIFSGNDMGWYRQAPGKQRELVGIITSGGITDYADAVKGRFTISRDNAKNMMYLQMNSLKPEDTAVYYCNMRDRTIWWGQGTQVTVSS
notes: PD-L1 VHH
Consider B18, for which the ELISA in assay [3] is 1.11. The molecule also displayed an A/control in assay [4] of 9.59.

B19: 2LIG189 (VHH)
VHH: QVQLQESGGGLVQAGGSLRLSCAASGKIFSGNDMGWYRQAPGKQRELVGIITSGGITDYADAVKGRFTISRDNAKNMMYLQMNSLKPEDTAVYYCNMRDRTIWWGQGTQVTVSS
notes: PD-L1 VHH
Take B19: the ELISA in assay [3] was determined as 2.23. Further, the A/control in assay [4] is 12.9.

B20: 3LIG18 (VHH)
VHH: QVQLQESGGGLVQPGGSLRLSCAASGFNLDPYAIAWFRQAPGKEREEVSCISSSDVGTYYADSVKGRFTISRDNAKKTVYLQMNSLKPEDTAVYYCATDGYYYCSDYPHPLYWGQGTQVTVSS
notes: PD-L1 VHH
In assay [3], B20 displayed an ELISA of 3.5. This molecule also gave an A/control in assay [4] of 40.

B21: 2LIG127 (VHH)
VHH: QVQLQESGGGLVQPGGSLRLSCAASGFNLDPYAIGWFRQAPGKEREEVSCISSGDGSKYYADSVKGRFTMSRDNAKKTVYLQMNSLKPEDTAVYYCATDGYYYCSDYPHPLYWGQGTQVTVSS
notes: PD-L1 VHH
Take B21: the ELISA in assay [3] worked out at 3.73. Besides, in assay [4], the A/control is 34.6.

B22: 2LIG139 (VHH)
VHH: QVQLQESGGGLVQPGGSLRLSCAVSGFNLDPYAIAWFRQAPGKEREEVSCISSSDVGTYYADSVKGRFTISRDNAKKTVYLQMNSLKPEDTAVYYCATDGYYYCSDYPHPLYWGQGTQVTVSS
notes: PD-L1 VHH
In assay [3], B22 showed an ELISA of 4. The A/control in assay [4] was found to be 33.3.

B23: 2LIG65 (VHH)
VHH: QVQLQESGGGLVQAGGSLRLSCAASGFNLDPYAIAWFRQAPGKEREEVSCISSSDVGTYYADSVKGRFTISRDNAKKTVYLQMNSLKPEDTAVYYCATDGYYYCSDYPHPLYWGQGTQVTVSS
notes: PD-L1 VHH
In the case of B23, the ELISA in assay [3] was determined as 2.11. Besides, the A/control in assay [4] was determined as 23.6.

B24: 2LIG89 (VHH)
VHH: QVQLQESGGGLVQPGGSLRLSCAASGFNLDPYAIAWFRQAPGKEREEVSCISSSDVGTYYADSVKGRFTISRDNTKKTVYLQMNSLKPEDTAVYYCATDGYYYCSDYPHPLYWGQGTQVTVSS
notes: PD-L1 VHH
In assay [3], B24 gave an ELISA of 2.88. The molecule also came in with an A/control in assay [4] of 27.2.

B25: 3LIG3 (VHH)
VHH: QVQLQESGGGLVQPGGSLRLSCAASGFTLDYYAIGWFRQAPGKEREEVSCISSSDGSTYYADSVKGRFTISRDNAKNTVNLQMNSLKPEDTAVYYCATDGWSSCRHGINEYLYWGQGTQVTVSS
notes: PD-L1 VHH
On to B25, for which the ELISA in assay [3] turned out to be 0.58. For the same molecule, the A/control in assay [4] is 7.16.

B26: 3LIG33 (VHH)
VHH: QVQLQESGGGLVQPGTSLRLSCAASGFTLDYYAIGWFRQAPGKEREEVSCISSSDGSTYYADSVKGRFTISRDNAKNTVNLQMNSLKPEDTAVYYCATDGWSSCRHGINEYLYWGQGTQVTVSS
notes: PD-L1 VHH
In turn, B26 came in with an ELISA in assay [3] of 1.76. This molecule came in with an A/control in assay [4] of 19.1.

B27: 2PD-152 (VHH)
VHH: QVQLQESGGGLVQTGESLRLSCAASGIIKSINFMGWYRQPPGTKRELVASTTSDGRTTVADSVKGRFTISRDNAKNTIYLEMSSLKPEDTATYWCNADIWLPSDRMYNYWGQGTQVTVSS
notes: PD-1 VHH
On to B27, for which the “ELISA A” value in assay [1] was 2.31. The molecule further displayed an A/control in assay [2] of 6.38.
